Assay results taken from the supplement of paper PMC7125110.
± gives the standard error. This sample holds only a part of the variants without activity.

B1: glmS ribozyme (parent)
chain: AUAAAAGCGCCAGAACUACAGAAAUGUAGUUGACGAGGAGGAGGUUUAUCGAAUUUUCGGCGGAUGCCUCCAAA

How the values were obtained:
Conditions in all cases: with glucosamine-6-phosphate
glucosamine-6-phosphate [1] = variants of: B1; test: self-cleavage kobs at 40 uM GlcN6P; higher = faster cleavage; RNA array
How it was run: (§1)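 Ribozyme variants carrying barcodes were transcribed in situ on sequenced MiSeq chips by E. coli RNA polymerase and tracked at 37 °C with a hybridised Cy3 probe. They were exposed to 40 μM to 10 mM glucosamine-6-phosphate in HEPES/KCl/Mg(OAc)2 buffer. kobs came from exponential decay fits of normalised per-tile medians, and kcat and KM from weighted Michaelis–Menten fits.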

glucosamine-6-phosphate [2] = variants of: B1; test: self-cleavage kobs at 2500 uM GlcN6P; higher = faster cleavage; RNA array
How it was run: as §1

glucosamine-6-phosphate [3] = variants of: B1; test: self-cleavage kobs at 10000 uM GlcN6P; higher = faster cleavage; RNA array
How it was run: as §1

glucosamine-6-phosphate [4] = variants of: B1; test: self-cleavage kobs at 160 uM GlcN6P; higher = faster cleavage; RNA array
How it was run: as §1

glucosamine-6-phosphate [5] = variants of: B1; test: self-cleavage kobs at 640 uM GlcN6P; higher = faster cleavage; RNA array
How it was run: as §1

Variant	self-cleavage kobs at 40 uM GlcN6P (glucosamine-6-phosphate [1]) [s⁻¹]	self-cleavage kobs at 2500 uM GlcN6P (glucosamine-6-phosphate [2]) [s⁻¹]	self-cleavage kobs at 10000 uM GlcN6P (glucosamine-6-phosphate [3]) [s⁻¹]	self-cleavage kobs at 160 uM GlcN6P (glucosamine-6-phosphate [4]) [s⁻¹]	self-cleavage kobs at 640 uM GlcN6P (glucosamine-6-phosphate [5]) [s⁻¹]
G35A C50G C71U	0.000138 ± 3.5e-05	8.9e-05 ± 3.1e-05	0.000191 ± 3.6e-05	–	–
G13U A52C	< 1e-05	< 1e-05	< 1e-05	–	–
C11G A39U C50G	< 1e-05	< 1e-05	< 1e-05	< 1e-05	< 1e-05
G59C G60U	< 1e-05	< 1e-05	< 1e-05	< 1e-05	< 1e-05
C16U A53C	0.000147 ± 2.2e-05	0.00358 ± 0.00061	0.00687 ± 0.0013	0.000234 ± 6.4e-05	0.00248 ± 0.00046
A6U C50A	< 1e-05	–	–	< 1e-05	< 1e-05
U30C G35A C50G C61U A64G	0.000165 ± 5.1e-05	–	–	–	–
A12U G32A A33U	< 1e-05	–	–	–	< 1e-05
C11A G37C A39G G41A U47G	< 1e-05	–	< 1e-05	–	–
A12U U47C G60A	< 1e-05	–	< 1e-05	–	–
A36G A64U U65G	< 1e-05	< 1e-05	< 1e-05	–	< 1e-05
C34A A39G A48U C68A	< 1e-05	< 1e-05	< 1e-05	< 1e-05	–
G9A A14U C61A	< 1e-05	< 1e-05	–	–	–
C10U C34A C50G U65A	8.28e-05 ± 3e-05	6.81e-05 ± 2.9e-05	0.000129 ± 2.8e-05	–	–
U55G U57G C67U	< 1e-05	–	–	–	–
A14G C71G	0.00028 ± 3.6e-05	–	0.00586 ± 0.0014	0.000718 ± 0.00016	0.00058 ± 7.9e-05
G38U A53C	< 1e-05	< 1e-05	–	< 1e-05	< 1e-05
U31C G60C	< 1e-05	–	< 1e-05	–	–
A6G C50U C58U U65G	< 1e-05	–	< 1e-05	–	< 1e-05
G35A G41A	< 1e-05	< 1e-05	< 1e-05	< 1e-05	< 1e-05
U54A C70G	6.49e-05 ± 8.1e-06	0.000176 ± 2.2e-05	0.000131 ± 1.5e-05	6.78e-05 ± 1e-05	0.00033 ± 5.7e-05
C8A A64U	< 1e-05	< 1e-05	< 1e-05	< 1e-05	< 1e-05
U30A C61U	< 1e-05	–	< 1e-05	–	< 1e-05

Variant	self-cleavage kobs at 40 uM GlcN6P (glucosamine-6-phosphate [1]) [s⁻¹]	self-cleavage kobs at 2500 uM GlcN6P (glucosamine-6-phosphate [2]) [s⁻¹]	self-cleavage kobs at 10000 uM GlcN6P (glucosamine-6-phosphate [3]) [s⁻¹]	self-cleavage kobs at 160 uM GlcN6P (glucosamine-6-phosphate [4]) [s⁻¹]	self-cleavage kobs at 640 uM GlcN6P (glucosamine-6-phosphate [5]) [s⁻¹]
G35A U45A C67U	< 1e-05	–	< 1e-05	–	–
C10G A33U C67G	< 1e-05	–	–	–	–
A6U C16U G38A	< 1e-05	< 1e-05	–	–	< 1e-05
U54G U56G G63A C67U	< 1e-05	–	< 1e-05	–	–
C8G C71U	< 1e-05	< 1e-05	< 1e-05	< 1e-05	< 1e-05
G60U C61G	< 1e-05	< 1e-05	< 1e-05	–	–
C8G C61U G66A C70U	< 1e-05	–	–	–	–
U30A G60U C71U	< 1e-05	–	< 1e-05	–	–
G7A G41A U45C U49A	< 1e-05	–	–	–	–
G38A G43U	< 1e-05	–	< 1e-05	< 1e-05	< 1e-05
G37A G51A U55G	< 1e-05	–	< 1e-05	–	–
A12G G13C G32U G40A A64C	< 1e-05	–	–	–	–
G7U G41U A48U	< 1e-05	–	–	–	–
C10G C11G C68U	< 1e-05	–	–	–	–
A39G C50G C58A	0.000142 ± 4.6e-05	–	–	–	–
A42G G66A	0.000416 ± 6.5e-05	0.00984 ± 0.0018	0.0267 ± 0.0068	0.000862 ± 0.0002	0.00611 ± 0.00079
G32U A36G G41C A52U C67A	< 1e-05	–	–	–	–
U49G U55G U65G	< 1e-05	–	6.42e-05 ± 1.5e-05	–	–
A39C G41A	< 1e-05	–	< 1e-05	< 1e-05	< 1e-05
C8G C16G G41A U47A	< 1e-05	< 1e-05	< 1e-05	–	< 1e-05
A48U C50G C67U	0.000126 ± 4.4e-05	–	–	–	–
C10U U65A	< 1e-05	< 1e-05	< 1e-05	< 1e-05	< 1e-05
A14U C34G A42U U45C A53C	< 1e-05	–	< 1e-05	–	–
